Source: doi:10.1101/2020.06.21.163824

Key:
[1] = molecular target: rhTNFα labeled in the amine groups (NT-650, NHS-coupling) (human) (UniProt P01375); test: MST
[2] = molecular target: recombinant human TNFα (soluble human TNFα, residues 85-233, C-terminal His tag) (human) (UniProt P01375); test: ELISA
[3] = molecular target: Adalimumab labeled with NT-647 in the thiol groups (Cys-coupling) (human); test: MST

| KD of the first phase (Adalimumab 30.5 pM to 7.8 nM) [1] [pM] | KD of the second phase (Adalimumab 1.95 to 1 µM) [1] [nM] | Kd [2] [nM] | OD50 (antagonist concentration at half-maximal OD), rhTNFα coated at 1,25 µg/ml [2] [nM] | OD50 (antagonist concentration at half-maximal OD), rhTNFα coated at 2,5 µg/ml [2] [nM] | Kd [3] [nM] | Substance |
| --- | --- | --- | --- | --- | --- | --- |
| 100 | 21 | 1.32 | 0.641 | 0.622 | – | Adalimumab (Humira) (antibody) |
| – | – | – | – | – | 29.6 | recombinant human TNFα (soluble human TNFα, residues 85-233, C-terminal His tag) (from UniProt P01375 85-233) (ligand) |
